Values belong to the binder of their own block, whether it stands above or below them.
Experiments:
[1] = target: T1, rmUNC5C, in-house production from HEK293F cells (N-terminal His and FLAG tag + amino acids 41-380 of murine … (mouse, UniProt O08747 41-380)); experiment: direct ELISA
T1 construct: extracellular domain; also called mouse UNC5C (Inhouse antigen); recombinant mouse UNC5C
Protocol: (§1) The plate was washed with PBS. Plates were blocked with 200 μl/well of blocking solution (1% BSA w/v in PBS) for 1 hour at room temperature. Following this, the blocking solution was removed and antibodies to be assessed were diluted in dilution series (1 μM to 0.05 nM) in blocking solution (1% BSA w/v in PBS) and applied to the plate. Plates were incubated at room temperature for 1 hour. The plate was washed with PBS/0.1% Tween. […] The plate was washed with PBS/0.1% Tween and TMB solution (Life Technology; #002023) added. Plates were incubated for 5 minutes at room temperature prior to the addition of stopping solution (0.5M sulphuric acid). Absorbance was read on Molecular Devices FilterMaxF5 plate reader at 450 nm. Analysis was performed using a non-linear fit curve fitting algorithm on GraphPad prism and EC50 calculated.
(§2) To measure the binding potency of antibodies to UNC5C protein, antibodies were assessed in a direct ELISA format for binding to human UNC5C. In addition, a selection of these antibodies was also screened for binding to mouse, cyno, and rat UNC5C in a direct ELISA format.

[2] = target: T2, Recombinant rat UNC5C (N-terminal His and FLAG tag), in-house production from HEK293F cells (rat, UniProt Q761X5 41-380); experiment: direct ELISA
T2 construct: also called rat UNC5C (inhouse antigen); rat antigen
Protocol: as §1, §2

[3] = target: T3, Human recombinant UNC5D (BLI antigen) (Human, UniProt Q6UXZ4 33-379); experiment: BLI, antigen captured by His tag, antibody as analyte
T3 construct: also called UNC5D ectodomain
Excerpt: (§3) Antigen was loaded as ligand and dipped into antibody as analyte during association, and assay buffer during dissociation.
(§4) Purified recombinant antigens were purchased from a commercial supplier or prepared and purified in-house and details are shown in Table 2.

[4] = target: T4, Human Neogenin (R&D Systems catalogue number 8607-NE; BLI antigen) (Human, UniProt Q92859 34-1105); experiment: as above
T4 construct: extracellular domain; Bought protein; also called neogenin-1 ectodomain; NEO1
T4 sequence (looked up): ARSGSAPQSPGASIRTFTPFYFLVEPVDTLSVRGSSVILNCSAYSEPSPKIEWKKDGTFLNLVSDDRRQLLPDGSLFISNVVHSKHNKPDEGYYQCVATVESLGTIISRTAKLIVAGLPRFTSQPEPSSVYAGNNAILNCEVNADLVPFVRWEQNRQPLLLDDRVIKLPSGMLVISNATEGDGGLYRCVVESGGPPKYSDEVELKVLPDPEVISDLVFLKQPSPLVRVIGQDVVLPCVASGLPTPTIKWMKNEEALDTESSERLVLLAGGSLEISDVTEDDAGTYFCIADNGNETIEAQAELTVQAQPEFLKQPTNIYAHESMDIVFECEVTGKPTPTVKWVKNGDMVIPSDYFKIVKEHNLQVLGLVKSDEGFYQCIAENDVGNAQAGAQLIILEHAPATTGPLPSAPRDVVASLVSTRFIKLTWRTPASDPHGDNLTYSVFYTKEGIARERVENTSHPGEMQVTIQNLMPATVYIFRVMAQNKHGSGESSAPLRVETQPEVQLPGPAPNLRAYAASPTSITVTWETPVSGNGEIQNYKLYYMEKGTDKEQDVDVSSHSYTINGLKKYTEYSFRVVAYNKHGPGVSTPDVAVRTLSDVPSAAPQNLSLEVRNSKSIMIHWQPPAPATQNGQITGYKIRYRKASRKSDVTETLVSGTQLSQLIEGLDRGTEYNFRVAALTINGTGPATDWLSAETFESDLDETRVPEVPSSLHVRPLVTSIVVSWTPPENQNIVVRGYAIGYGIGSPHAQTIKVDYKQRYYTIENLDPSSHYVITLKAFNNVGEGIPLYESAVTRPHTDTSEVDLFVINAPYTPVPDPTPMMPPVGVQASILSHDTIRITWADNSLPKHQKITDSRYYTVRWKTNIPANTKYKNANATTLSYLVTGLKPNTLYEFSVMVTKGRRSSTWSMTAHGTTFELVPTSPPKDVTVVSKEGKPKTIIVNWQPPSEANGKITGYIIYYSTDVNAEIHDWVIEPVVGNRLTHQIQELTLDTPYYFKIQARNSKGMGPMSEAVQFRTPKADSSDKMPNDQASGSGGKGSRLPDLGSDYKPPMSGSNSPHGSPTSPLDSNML
Excerpt: as §3, §4

[5] = target: T5, Human recombinant UNC5A (BLI antigen) (Human, UniProt Q6ZN44 26-306); experiment: as above
T5 construct: Captured by His tag; also called UNC5A ectodomain
Excerpt: as §3, §4

[6] = target: T6, Human recombinant DCC (BLI antigen) (Human, UniProt P43146 26-1097); experiment: as above
T6 construct: also called Netrin receptor DCC ectodomain
Excerpt: as §3, §4

[7] = target: T7, Human recombinant UNC5B (BLI antigen) (Human, UniProt Q8IZJ1 27-377); experiment: as above
T7 construct: also called UNC5B ectodomain
Excerpt: as §3, §4

[8] = target: T8, mouse UNC5C in frozen C57BL/6 mouse brain sections (mouse, UniProt O08747 41-931); experiment: immunofluorescence on frozen mouse brain sections, 10 µg/ml antibody
T8 construct: Native protein in fixed tissue sections; also called UNC5C in its natural central nervous system (CNS) context; mouse brain tissue

[9] = target: T9, UNC5C recombinant human antigen, Fc-tagged (R&D Systems, #1005-UN) (human, UniProt O95185 41-380, limits assumed); experiment: direct ELISA
T9 construct: Bought protein; also called rhUNC5C; not shown: Fc tag of the bought protein
Protocol: as §1, §2

[10] = target: T9, UNC5C recombinant human antigen, …; experiment: ELISA, antigen down
[11] = target: T10, Recombinant cyno UNC5C (N-terminal His and FLAG tag), in-house production from HEK293F cells (cyno, UniProt O95185 41-380 (human entry), limits assumed); experiment: direct ELISA
T10 construct: also called cyno UNC5C (Inhouse antigen); cyno antigen
Protocol: as §1, §2

T1 sequence (O08747 other isoform, or with tags, fused parts or gaps limits assumed): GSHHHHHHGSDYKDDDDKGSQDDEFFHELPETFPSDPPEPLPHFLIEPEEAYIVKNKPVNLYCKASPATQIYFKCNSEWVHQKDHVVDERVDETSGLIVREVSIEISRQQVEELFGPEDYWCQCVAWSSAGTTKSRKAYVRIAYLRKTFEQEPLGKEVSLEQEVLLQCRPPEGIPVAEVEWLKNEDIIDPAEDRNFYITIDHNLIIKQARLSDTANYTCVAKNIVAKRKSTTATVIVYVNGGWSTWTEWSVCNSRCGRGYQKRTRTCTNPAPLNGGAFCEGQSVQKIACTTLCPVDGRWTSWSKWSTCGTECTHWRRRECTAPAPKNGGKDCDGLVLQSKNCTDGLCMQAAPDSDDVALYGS
T2 sequence (Q761X5 other isoform, or with tags, fused parts or gaps limits assumed): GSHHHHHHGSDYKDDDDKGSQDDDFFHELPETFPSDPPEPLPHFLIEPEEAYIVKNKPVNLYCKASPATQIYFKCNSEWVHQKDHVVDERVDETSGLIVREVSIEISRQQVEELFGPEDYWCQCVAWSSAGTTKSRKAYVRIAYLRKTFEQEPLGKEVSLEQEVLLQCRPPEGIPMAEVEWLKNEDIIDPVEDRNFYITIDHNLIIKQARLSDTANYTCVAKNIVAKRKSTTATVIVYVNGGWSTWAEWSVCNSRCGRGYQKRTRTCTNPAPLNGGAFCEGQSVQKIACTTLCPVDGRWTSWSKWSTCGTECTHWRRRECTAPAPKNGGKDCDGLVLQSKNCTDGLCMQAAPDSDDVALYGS
T9 sequence (O95185 41-380 limits assumed): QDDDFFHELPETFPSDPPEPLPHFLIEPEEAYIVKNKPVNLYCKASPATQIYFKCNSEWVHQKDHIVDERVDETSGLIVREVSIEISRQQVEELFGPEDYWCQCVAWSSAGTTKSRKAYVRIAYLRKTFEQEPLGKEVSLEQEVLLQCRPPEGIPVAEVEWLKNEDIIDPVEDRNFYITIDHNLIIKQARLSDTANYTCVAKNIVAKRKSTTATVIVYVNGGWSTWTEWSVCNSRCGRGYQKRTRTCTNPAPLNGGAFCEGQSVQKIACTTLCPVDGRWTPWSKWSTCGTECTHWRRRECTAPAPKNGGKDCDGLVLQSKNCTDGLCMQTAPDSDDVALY
T5 sequence (Q6ZN44 other isoform, or with tags, fused parts or gaps): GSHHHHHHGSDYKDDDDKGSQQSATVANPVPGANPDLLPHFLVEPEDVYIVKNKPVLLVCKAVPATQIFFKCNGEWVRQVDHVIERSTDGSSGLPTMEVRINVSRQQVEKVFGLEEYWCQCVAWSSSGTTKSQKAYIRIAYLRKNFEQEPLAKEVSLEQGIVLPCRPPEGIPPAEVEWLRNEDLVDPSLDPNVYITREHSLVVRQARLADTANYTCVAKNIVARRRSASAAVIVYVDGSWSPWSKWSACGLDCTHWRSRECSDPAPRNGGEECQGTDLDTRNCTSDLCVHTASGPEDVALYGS
T3 sequence (Q6UXZ4 other isoform, or with tags, fused parts or gaps): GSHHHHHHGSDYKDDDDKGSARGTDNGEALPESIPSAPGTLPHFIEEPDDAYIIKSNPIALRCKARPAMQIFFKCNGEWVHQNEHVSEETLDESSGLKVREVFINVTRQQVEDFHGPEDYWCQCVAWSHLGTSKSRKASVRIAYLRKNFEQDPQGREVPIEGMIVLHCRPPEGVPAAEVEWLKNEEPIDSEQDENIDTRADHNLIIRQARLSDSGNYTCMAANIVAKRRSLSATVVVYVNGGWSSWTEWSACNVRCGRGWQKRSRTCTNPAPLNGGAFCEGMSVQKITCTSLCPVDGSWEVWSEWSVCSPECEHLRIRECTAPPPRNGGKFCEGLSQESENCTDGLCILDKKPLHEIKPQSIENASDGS
T8 sequence (O08747 41-931 limits assumed): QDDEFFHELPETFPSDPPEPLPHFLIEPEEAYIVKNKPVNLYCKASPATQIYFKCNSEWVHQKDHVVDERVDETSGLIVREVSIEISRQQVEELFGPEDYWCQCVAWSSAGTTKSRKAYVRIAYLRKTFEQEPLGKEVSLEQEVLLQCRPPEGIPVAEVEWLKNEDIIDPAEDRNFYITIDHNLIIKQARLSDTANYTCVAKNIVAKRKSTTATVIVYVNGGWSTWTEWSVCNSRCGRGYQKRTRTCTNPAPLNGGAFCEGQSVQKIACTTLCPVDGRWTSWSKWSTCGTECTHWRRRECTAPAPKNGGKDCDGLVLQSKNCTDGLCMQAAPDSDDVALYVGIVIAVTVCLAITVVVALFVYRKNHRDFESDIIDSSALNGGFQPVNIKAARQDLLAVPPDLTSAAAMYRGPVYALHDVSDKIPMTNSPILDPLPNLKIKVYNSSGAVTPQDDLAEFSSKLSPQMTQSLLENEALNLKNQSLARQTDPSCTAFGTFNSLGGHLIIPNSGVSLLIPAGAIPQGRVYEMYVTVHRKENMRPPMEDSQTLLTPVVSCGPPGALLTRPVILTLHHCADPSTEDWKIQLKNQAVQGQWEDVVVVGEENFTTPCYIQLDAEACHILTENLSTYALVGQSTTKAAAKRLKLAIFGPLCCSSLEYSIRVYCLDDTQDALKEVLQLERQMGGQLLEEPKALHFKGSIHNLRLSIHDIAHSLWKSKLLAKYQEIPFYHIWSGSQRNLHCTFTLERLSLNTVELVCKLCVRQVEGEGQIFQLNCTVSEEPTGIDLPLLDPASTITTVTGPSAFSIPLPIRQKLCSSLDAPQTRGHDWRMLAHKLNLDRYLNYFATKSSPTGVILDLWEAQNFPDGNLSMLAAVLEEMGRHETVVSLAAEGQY
T6 sequence (P43146 other isoform, or with tags, fused parts or gaps): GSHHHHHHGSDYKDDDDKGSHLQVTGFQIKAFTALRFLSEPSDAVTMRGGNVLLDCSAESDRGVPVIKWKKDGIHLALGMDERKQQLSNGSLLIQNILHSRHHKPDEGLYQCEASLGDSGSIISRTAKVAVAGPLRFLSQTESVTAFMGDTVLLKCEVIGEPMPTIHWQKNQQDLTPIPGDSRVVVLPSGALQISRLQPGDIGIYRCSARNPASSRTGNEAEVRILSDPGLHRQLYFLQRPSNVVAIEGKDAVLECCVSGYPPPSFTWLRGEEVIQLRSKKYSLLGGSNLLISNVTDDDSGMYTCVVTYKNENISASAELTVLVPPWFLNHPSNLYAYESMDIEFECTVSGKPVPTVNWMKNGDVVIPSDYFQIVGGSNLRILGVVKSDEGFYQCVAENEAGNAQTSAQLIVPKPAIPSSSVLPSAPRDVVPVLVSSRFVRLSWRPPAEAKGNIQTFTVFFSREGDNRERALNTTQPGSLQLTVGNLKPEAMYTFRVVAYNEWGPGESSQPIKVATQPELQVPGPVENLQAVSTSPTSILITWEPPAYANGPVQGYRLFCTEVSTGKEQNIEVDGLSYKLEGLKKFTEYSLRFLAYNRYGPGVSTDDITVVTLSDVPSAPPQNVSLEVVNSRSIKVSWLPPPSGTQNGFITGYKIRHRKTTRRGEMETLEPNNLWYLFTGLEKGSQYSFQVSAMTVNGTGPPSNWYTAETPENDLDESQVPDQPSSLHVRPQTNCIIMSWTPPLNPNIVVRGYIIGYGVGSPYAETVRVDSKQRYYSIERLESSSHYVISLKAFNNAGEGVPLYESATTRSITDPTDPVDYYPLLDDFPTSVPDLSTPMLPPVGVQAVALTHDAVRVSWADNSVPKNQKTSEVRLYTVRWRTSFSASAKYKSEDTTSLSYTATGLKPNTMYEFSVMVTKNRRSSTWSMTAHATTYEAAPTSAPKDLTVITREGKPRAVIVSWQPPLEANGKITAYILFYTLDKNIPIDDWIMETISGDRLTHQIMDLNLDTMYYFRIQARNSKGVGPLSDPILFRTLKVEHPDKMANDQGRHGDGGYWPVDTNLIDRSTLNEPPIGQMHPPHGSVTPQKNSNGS
T10 sequence (O95185 other isoform, or with tags, fused parts or gaps limits assumed): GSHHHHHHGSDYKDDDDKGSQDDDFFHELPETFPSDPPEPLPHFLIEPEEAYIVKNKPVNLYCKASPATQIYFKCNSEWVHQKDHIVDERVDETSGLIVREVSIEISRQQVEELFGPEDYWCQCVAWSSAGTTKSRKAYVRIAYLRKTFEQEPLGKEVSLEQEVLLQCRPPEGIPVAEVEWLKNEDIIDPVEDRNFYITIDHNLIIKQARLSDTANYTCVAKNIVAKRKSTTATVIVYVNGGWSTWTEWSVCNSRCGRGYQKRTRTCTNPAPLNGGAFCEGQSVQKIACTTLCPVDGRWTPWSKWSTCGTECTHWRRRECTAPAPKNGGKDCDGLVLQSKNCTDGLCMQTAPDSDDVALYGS

B1: ATL_0005262 (antibody, human IgG1, V domains shown)
VH: QVQLQESGPGLVKPSETLSLTCTVSGGSISSYFWTWIRQPPGKRLEWIGYIHNSGTTNQNPSLKSRVTISIDTSKNHFSLKLSSVTAADTAVYYCARGRGMATLPFDYWGQGTLVTVSS
VL: not shown
notes: also called ATL_5262; ATL5262
binding result [1]: binds | binding result [2]: binds | binding result [3]: no binding (tested: up to 100 nM) | binding result [4]: no binding (tested: up to 100 nM) | binding result [5]: no binding (tested: up to 100 nM) | binding result [6]: no binding (tested: up to 100 nM) | binding result [7]: no binding (tested: up to 100 nM) | binding result [8]: binds

B2: ATL_0006039 (antibody, IgG1, V domains shown)
VH: QVQLQESGPGLVKPSETLSLTCTVSGGSISSYFWTWIRQPPGKRLEWIGYIHNSGTTNQNPSLKSRVTISIDKSKNHFSLKLSSVTAADTAVYYCARGRGMATLPFDYWGQGTLVTVSS
VL: not shown
notes: also called ATL_6039
binding result [2]: binds

B5: ATL_0006534 (antibody, V domains shown)
VH: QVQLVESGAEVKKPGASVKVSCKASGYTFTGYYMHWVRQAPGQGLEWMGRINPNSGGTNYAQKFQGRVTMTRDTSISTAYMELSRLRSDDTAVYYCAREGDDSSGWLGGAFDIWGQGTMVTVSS
VL: NFMLTQPHSVLESPGKTVTIPCTRSSGSIASNYVQWYQQRPGSAPTAVIFEDNVRPSGVPDRFSGSVDSSSNSASLTISGLKTEDEGDFYCQSYDSSGHVVFGGGTKVTVL
notes: also called ATL_6534; Y_0001393-001
EC50 [10]: 0.01 nM

The remaining lines, values ahead:

binding result [1]: binds | signal over lysozyme control (fold) [9]: ≥ 3 fold
B3: ATL_0006001 (antibody, IgG1, V domains shown)
VH: QVQLQESGPGLVKPSETLSLTCTVSGGSISSYFWTWIRQPPGKRLEWIGYIHNSGTTNQNPSLKSRVTISIDTSKNHFSLKLSSVTAADTAVYYCARGRGMATLPFDYWGQGTLVTVSS
VL: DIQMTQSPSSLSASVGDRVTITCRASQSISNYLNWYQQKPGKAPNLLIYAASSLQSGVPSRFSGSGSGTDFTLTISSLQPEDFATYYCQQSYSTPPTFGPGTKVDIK
notes: VL pairing variant of ATL_5262; also called ATL_6001

binding result [1]: binds | binding result [2]: binds
B4: ATL_0006191 (antibody, IgG1, V domains shown)
VH: QVQLQESGPGLVKPSETLSLTCTVSGGSIGSYFWSWIRQTPGKGLEWIGYIHYSGSSNYNPSLKSRVTISVDTFKNQFSLKLTSVTAADTAVYYCARGRGMATLPFDYWGQGTLVTVSS
VL: not shown
notes: ATL_5262 homologue VH paired with the VL of ATL_5262; also called ATL_6191; ATL6191

binding result [2]: no binding (tested: <1 µM) | binding result [11]: no binding (tested: <1 µM)
B6: ATL_0005338 (antibody, V domains shown)
VH: EVKLDETGGGLVQPGRPMKLSCVASGFTFSDYWMNWVRQSPEKGLEWVAQIRNKPYNYETYYSDSVKGRFTISRDDSKSSVYLQMNNLRVEDMGIYYCTGSYYGMDYWGQGTSVTVSS
VL: DVVMTQTPLSLPVSLGDQASISCRSSQSLVNSNGNTYLRWYLQKPGQSPKVLIYKVSNRVSGVPDRFSGSGSGTDFTLKISRVEAEDLGVYFCSQSTHVPWTFGGGTKLEIK
notes: also called ATL_5338
